Molecular target: actin filaments (rabbit muscle actin, polymerized) (rabbit, UniProt P68135 1-377)
Experiment: co-sedimentation; high-speed cosedimentation; 3 uM actin (AFs) with 0.25-8 uM FH1FH2; bound against free protein fitted with a hyperbolic function; three independent experiments; methods in the supplement
Conditions: both partners purified

B1: OsFH15 FH2 (truncated recombinant protein containing the FH2 domain of OsFH15) (domain or fragment)
chain: not shown
notes: OsFH15, class I formin of Oryza sativa, 788 a.a; source: E. coli Transetta (DE3), pET-30a(+), purified (Ni-NTA)
For B1, which Kd is on record?
The Kd was 1.51 ± 0.07 µM.

— article PMC5529588, “OsFH15, a class I formin, interacts with microfilaments and microtubules to regulate grain size via affecting cell expansion in rice” (Scientific Reports, 2017)
